Molecular target: vimentin (mouse (endogenous in MC-3T3 and in …, UniProt P20152 1-466))
Assay: co-IP

vimentin (mouse, sequence (P20152 whole entry): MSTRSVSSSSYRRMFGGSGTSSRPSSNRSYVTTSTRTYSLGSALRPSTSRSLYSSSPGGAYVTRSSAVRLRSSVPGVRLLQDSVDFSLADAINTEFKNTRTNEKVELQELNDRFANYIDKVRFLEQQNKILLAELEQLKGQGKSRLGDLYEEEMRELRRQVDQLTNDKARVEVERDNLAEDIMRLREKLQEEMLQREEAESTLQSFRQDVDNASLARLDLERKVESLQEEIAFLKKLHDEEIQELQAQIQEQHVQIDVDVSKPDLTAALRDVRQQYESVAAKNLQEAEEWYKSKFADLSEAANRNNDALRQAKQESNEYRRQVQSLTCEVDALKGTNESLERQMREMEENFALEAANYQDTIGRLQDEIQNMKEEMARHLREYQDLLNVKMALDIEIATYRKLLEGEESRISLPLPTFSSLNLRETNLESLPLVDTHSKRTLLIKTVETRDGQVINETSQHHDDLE

- fold increase of the association with IGF-I: 3.5 fold
B1: activated PKCζ (phosphorylated on threonine 410) (enzyme, mouse (endogenous in MC-3T3), UniProt Q02956 1-592, looked up)
chain: MPSRTDPKMDRSGGRVRLKAHYGGDILITSVDAMTTFKDLCEEVRDMCGLHQQHPLTLKWVDSEGDPCTVSSQMELEEAFRLVCQGRDEVLIIHVFPSIPEQPGMPCPGEDKSIYRRGARRWRKLYRANGHLFQAKRFNRGAYCGQCSERIWGLSRQGYRCINCKLLVHKRCHVLVPLTCRRHMDSVMPSQEPPVDDKNDGVDLPSEETDGIAYISSSRKHDNIKDDSEDLKPVIDGVDGIKISQGLGLQDFDLIRVIGRGSYAKVLLVRLKKNDQIYAMKVVKKELVHDDEDIDWVQTEKHVFEQASSNPFLVGLHSCFQTTSRLFLVIEYVNGGDLMFHMQRQRKLPEEHARFYAAEICIALNFLHERGIIYRDLKLDNVLLDADGHIKLTDYGMCKEGLGPGDTTSTFCGTPNYIAPEILRGEEYGFSVDWWALGVLMFEMMAGRSPFDIITDNPDMNTEDYLFQVILEKPIRIPRFLSVKASHVLKGFLNKDPKERLGCRPQTGFSDIKSHAFFRSIDWDLLEKKQTLPPFQPQITDDYGLDNFDTQFTSEPVQLTPDDEDVIKRIDQSEFEGFEYINPLLLSAEESV
modifications: phosphothreonine at 410

— PMC5228590 (Journal of bone and mineral research : the official journal …, 2016)
